Measured values: article PMC5816147

Target: GLP1 receptor (human) (UniProt P43220)
Sequence (P43220 24-463): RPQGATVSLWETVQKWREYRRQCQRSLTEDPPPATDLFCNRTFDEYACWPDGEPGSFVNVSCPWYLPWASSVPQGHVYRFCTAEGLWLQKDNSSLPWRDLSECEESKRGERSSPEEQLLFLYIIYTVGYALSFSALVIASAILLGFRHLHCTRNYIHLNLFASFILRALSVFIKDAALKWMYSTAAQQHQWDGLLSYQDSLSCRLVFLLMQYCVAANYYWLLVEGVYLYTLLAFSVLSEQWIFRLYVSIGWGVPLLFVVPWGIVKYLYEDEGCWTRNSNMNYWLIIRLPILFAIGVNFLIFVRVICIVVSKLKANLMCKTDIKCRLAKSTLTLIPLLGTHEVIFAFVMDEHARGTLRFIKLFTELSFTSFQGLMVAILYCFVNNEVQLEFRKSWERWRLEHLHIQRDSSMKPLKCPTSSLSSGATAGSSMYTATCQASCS

EC50 of CRE-luciferase expression in HEK293 cells stably expressing GLP1R: 2200 nM
Substance: (D)-GLP1 peptide (designed binder)
